Measured values taken from patent US20200339700A1 (Bristol-Myers Squibb, published 2020).

Legend:
human CD40 [1] = target: T1, human CD40 (human, UniProt P25942 21-193); experiment: ELISA; first screen of the VL/VH pairs (Table 4), head in nM
T1 construct: also called huCD40; TNFRSF5

human CD40 [2] = target: T1, human CD40; experiment: ELISA; further experiments (Table 6 ELISA), reference value in the text
Method: (§1) An ELISA was performed to confirm that the improved antibodies retained affinity for CD40.

human CD40 [3] = target: T1, human CD40; experiment: ELISA
human CD40 [4] = target: T1, human CD40; experiment: ELISA; remark: listed apart in the source
Method: as §1

human CD40 [5] = target: T1, human CD40; experiment: antigen binding (method not named; ELISA in the rest of Example 2)
human CD40 [6] = target: T1, human CD40; experiment: ELISA; further experiments (Table 6), 4 day titer
Method: as §1

T1 sequence (P25942 21-193 limits assumed): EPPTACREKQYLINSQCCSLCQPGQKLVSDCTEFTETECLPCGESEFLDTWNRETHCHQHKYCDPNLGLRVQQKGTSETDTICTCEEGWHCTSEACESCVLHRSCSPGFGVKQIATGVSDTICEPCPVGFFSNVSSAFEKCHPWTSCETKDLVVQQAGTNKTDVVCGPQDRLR

Row | Kd (human CD40 [3]) [nM] | Kapp (human CD40 [5]) [nM] | Binder | also measured
1 | – | 0.25 | 12D6-24-L4H1 (antibody, human IgG1, V domains shown) VH: QVQLVQSGAEVKKPGASVKVSCKASGYTFTGYNMNWVRQAPGQGLEWMGNIDPYYGNTNYNQKFKGRVTMTTDTSTSTAYMELRSLRSDDTAVYYCARLGLQLYALDYWGQGTTVTVSS VL: DIVLTQSPDSLAVSLGERATINCRASQSLVHSNANTYLHWYQQKPGQPPKLLIYKLTNRFFGVPDRFSGSGSGTDFTLTISSLQAEDVAVYYCQQSIHVPWTFGQGTKLEIK | Kd (human CD40 [6]): 0.25 nM; Kd (human CD40 [1]): 0.2 nM
2 | 1.6 | – | 12D6-24 variant L5H2 (antibody, human IgG1, V domains shown) VH: QVQLVQSGAEVKKPGSSVKVSCKASGYTFTGYNMNWVRQAPGQGLEWMGNIDPYYGNTNYNQKFKGKTTLTADKSTSTAYMELSSLRSDDTAVYYCARLGLQLYALDYWGQGTLVTVSS VL: EIVMTQSPATLSVSPGERATLSCRASQSVSSNLAWYLHWYLQKPGQAPRLLIYKLTNRFFGIPARFSGSGSGTDFTLTISRVEAEDFAVYYCQQSIHVPWTFGQGTKVEIK | –
3 | – | 0.25 | 12D6-24 variant L4H2 (antibody, human IgG1, V domains shown) VH: QVQLVQSGAEVKKPGSSVKVSCKASGYTFTGYNMNWVRQAPGQGLEWMGNIDPYYGNTNYNQKFKGKTTLTADKSTSTAYMELSSLRSDDTAVYYCARLGLQLYALDYWGQGTLVTVSS VL: DIVLTQSPDSLAVSLGERATINCRASQSLVHSNANTYLHWYQQKPGQPPKLLIYKLTNRFFGVPDRFSGSGSGTDFTLTISSLQAEDVAVYYCQQSIHVPWTFGQGTKLEIK | Kd (human CD40 [6]): 0.25 nM; Kd (human CD40 [1]): 0.2 nM

Second part, the binder before the results:

Row | Binder | Kd (human CD40 [3]) [nM] | Kapp (human CD40 [5]) [nM] | also measured
4 | antibody 12D6-24 (antibody, human IgG1, kappa, V domains shown, also called mAb 12D6-24; unmodified 12D6-24) VH: QVQLVQSGAEVKKPGASVKVSCKASGYTFTGYNMNWVRQAPGQGLEWMGNIDPYYGNTNYNQKFKGRVTMTTDTSTSTAYMELRSLRSDDTAVYYCARLGLQLYALDYWGQGTTVTVSS VL: DIVMTQTPLSLPVTPGEPASISCRSSQSLVHSNANTYLHWYLQKPGQSPQLLIYKLTNRFFGVPDRFSGSGSGTDFTLKISRVEAEDVGVYYCSQSIHVPWTFGGGTKVEIKR | – | – | Kd (human CD40 [1]): 0.2 nM; Kd (human CD40 [2]): 0.24 nM
5 | 12D6-24 variant L2H1 (antibody, human IgG1, V domains shown) VH: QVQLVQSGAEVKKPGASVKVSCKASGYTFTGYNMNWVRQAPGQGLEWMGNIDPYYGNTNYNQKFKGRVTMTTDTSTSTAYMELRSLRSDDTAVYYCARLGLQLYALDYWGQGTTVTVSS VL: EIVMTQSPATLSVSPGERATLSCRASQSVSSNLAWYQQKPGQAPRLLIYKLTNRFFGIPARFSGSGSGTDFTLTISRVEAEDFAVYYCQQSIHVPWTFGQGTKVEIK | > 100 | – | –
6 | 12D6-24-L4H4 (antibody, human IgG1, V domains shown) VH: QVQLVQSGAEVKKPGASVKVSCKASGYTFTGYNMNWVRQAPGQGLEWMGNIDPYYGNTNYNQKFKGRTTLTADTSTSTAYMELSSLRSDDTAVYYCARLGLQLYALDYWGQGTLVTVSS VL: DIVLTQSPDSLAVSLGERATINCRASQSLVHSNANTYLHWYQQKPGQPPKLLIYKLTNRFFGVPDRFSGSGSGTDFTLTISSLQAEDVAVYYCQQSIHVPWTFGQGTKLEIK | – | 0.24 | Kd (human CD40 [4]): 240 nM
7 | 12D6-24 variant L1H2 (antibody, human IgG1, V domains shown) VH: QVQLVQSGAEVKKPGSSVKVSCKASGYTFTGYNMNWVRQAPGQGLEWMGNIDPYYGNTNYNQKFKGKTTLTADKSTSTAYMELSSLRSDDTAVYYCARLGLQLYALDYWGQGTLVTVSS VL: DIVMTQTPLSLPVTPGEPASISCRSSQSLVHSNANTYLHWYLQKPGQSPQLLIYKLTNRFFGVPDRFSGSGSGTDFTLKISRVEAEDVGVYYCSQSIHVPWTFGGGTKVEIK | 0.6 | – | –
8 | 12D6-24 variant L3H1 (antibody, human IgG1, V domains shown) VH: QVQLVQSGAEVKKPGASVKVSCKASGYTFTGYNMNWVRQAPGQGLEWMGNIDPYYGNTNYNQKFKGRVTMTTDTSTSTAYMELRSLRSDDTAVYYCARLGLQLYALDYWGQGTTVTVSS VL: EIVMTQSPATLSVSPGERATLSCRSSQSLVHSNANTYQQKPGQAPRLLIYKLTNRFFGIPDRFSGSGSGTDFTLTISRVEAEDFAVYYCQQSIHVPWTFGQGTKVEIK | > 100 | – | –
9 | 12D6-24 variant L5H1 (antibody, human IgG1, V domains shown) VH: QVQLVQSGAEVKKPGASVKVSCKASGYTFTGYNMNWVRQAPGQGLEWMGNIDPYYGNTNYNQKFKGRVTMTTDTSTSTAYMELRSLRSDDTAVYYCARLGLQLYALDYWGQGTTVTVSS VL: EIVMTQSPATLSVSPGERATLSCRASQSVSSNLAWYLHWYLQKPGQAPRLLIYKLTNRFFGIPARFSGSGSGTDFTLTISRVEAEDFAVYYCQQSIHVPWTFGQGTKVEIK | 1.6 | – | –
10 | 12D6-24 variant L2H2 (antibody, human IgG1, V domains shown) VH: QVQLVQSGAEVKKPGSSVKVSCKASGYTFTGYNMNWVRQAPGQGLEWMGNIDPYYGNTNYNQKFKGKTTLTADKSTSTAYMELSSLRSDDTAVYYCARLGLQLYALDYWGQGTLVTVSS VL: EIVMTQSPATLSVSPGERATLSCRASQSVSSNLAWYQQKPGQAPRLLIYKLTNRFFGIPARFSGSGSGTDFTLTISRVEAEDFAVYYCQQSIHVPWTFGQGTKVEIK | > 100 | – | –
11 | 12D6-24 variant L1H4 (antibody, human IgG1, V domains shown) VH: QVQLVQSGAEVKKPGASVKVSCKASGYTFTGYNMNWVRQAPGQGLEWMGNIDPYYGNTNYNQKFKGRTTLTADTSTSTAYMELSSLRSDDTAVYYCARLGLQLYALDYWGQGTLVTVSS VL: DIVMTQTPLSLPVTPGEPASISCRSSQSLVHSNANTYLHWYLQKPGQSPQLLIYKLTNRFFGVPDRFSGSGSGTDFTLKISRVEAEDVGVYYCSQSIHVPWTFGGGTKVEIK | – | 0.22 | Kd (human CD40 [4]): 230 nM
